Data from patent US20260078420A1.

Substrate: OC[C@H]1O[C@@H](O[C@H]2C(O)O[C@H](CO)[C@@H](O)[C@@H]2O)[C@H](O)[C@@H](O)[C@@H]1O
Test: purified protein, by the assay type
Settings: other: sophorose substrate; Gawronski phosphate release assay; 37.0 °C

B1: Rhizobium tropici β-1,2-glucan phosphorylase (RtSOGP, B6), wild type, SEQ ID NO: 11 (Martinezella tropici) (protein)
chain: MSSGTNRSFQTPRREELGLITLSNTAGLSASALPNGTLFSIDFADQQGGVMINQVLGSPVYGGIGRLYLRIGGAKPATAEIVGPKAAVQFGHGKSGFSWSGETAGVKHTISLRLHPNKTAWFWQVSLENSSNATLSADLVLVQDVGLGDRGFLMNSEAYASQYIDHHIADHSAFGPVIMVRQNLKQGGGRNPWLAQGCLEGAAAYATDAIQLLVPSKGNDGVMVPDFGTSLPSARRQHEVACPTIQSKPLALAAGAKATTTFFGLFIADHPAASSDADLAHLDGLPALQSELAAETISAGQPVRSLLQDAPLAESDDLDQAALDALYPRRMLEEHADGKLLSFFVPDGPHNRHIVLREKERLVARRHGAIVRSGQNMLLDDQTLAATCWMQGIFAAQLTIGNTSFHKLFSVSRDPYNLTRSSGLRILVDLGDGWRLLGVPAAFEMGLSDTRWIYRLPGRTIIVSAIASGDDPAMQWSVSVEGAACRFLVFGQIVLGERDYEAVANIAVDTAGKRISFQPQPSWLWDRYPKAGYHLVTSTPDAFEAIGGDELLYSDSTARNGPFIALKSHPTKALRFAVTGSMTDAQAAEALAARYTTGVESEEMLAPARRFWSHVTRGARIEGDGRDVAAQAVMLPWIAHDAIVHLSVPHGLEQYTGAAWGTRDVCQGPIEFLLAYEHDEEVRQILLTLFSEQYRDRGDWPQWFMLEPYANIRAGEAHGDIVVWPLKALCDYIEATGDIAFLAKTVPWRADDTMQLTSEHATISDHIEKLLDTVRSRFVPGTSLIRYGEGDWNDSLQPADPHLRDWMVSSWTVSLLYEQLVRYANILTLANRNDEAQSLQATAVAMRADFNRLLMRDGIVAGYGVFDPSHDGVELLLHPEDTRTGLHYSLIAMTQPMIGGLFAPEQRHAHMKIIRANLLFPDGVRLMEKPATYSGGPEKLFRRAESSSFFGREIGLMYVHAHLRYCEALALDDDAEAVWAALALANPIAVSGRVEHASLRQRNTYFSSSDAAFEDRYQASAEWTRVKAGDIAVDGGWRIYSSGPGLYTKSLIGNVFGFKRQFGQRIRKPLLPASIGACEVKLDFKA
B1 gave a Km of 70 µM, a Vmax of 24 µmol/min/mg and a kcat of 50 s⁻¹. For the same protein, the kcat/Km was 717000 M⁻¹ s⁻¹.
